“And” between values parts separate entries of the source, which are not always exact repeats. Equal entries are not always repeated.
Target: T1, human ribonucleotide reductase small subunit β′ (p53R2) (human, UniProt Q7LG56 1-351)
T1 sequence (looked up): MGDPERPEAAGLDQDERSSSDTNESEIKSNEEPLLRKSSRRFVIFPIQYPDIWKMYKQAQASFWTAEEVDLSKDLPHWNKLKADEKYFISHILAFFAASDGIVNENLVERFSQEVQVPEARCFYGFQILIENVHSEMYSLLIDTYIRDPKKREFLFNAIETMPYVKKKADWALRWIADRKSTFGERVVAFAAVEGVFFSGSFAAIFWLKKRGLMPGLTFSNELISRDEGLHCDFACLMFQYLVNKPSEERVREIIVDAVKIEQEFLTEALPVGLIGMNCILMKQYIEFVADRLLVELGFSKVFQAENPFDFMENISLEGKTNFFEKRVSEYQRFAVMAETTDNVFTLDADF
Assay: SEC

B1: human ribonucleotide reductase large subunit α (enzyme, UniProt P23921 1-792, looked up)
chain: MHVIKRDGRQERVMFDKITSRIQKLCYGLNMDFVDPAQITMKVIQGLYSGVTTVELDTLAAETAATLTTKHPDYAILAARIAVSNLHKETKKVFSDVMEDLYNYINPHNGKHSPMVAKSTLDIVLANKDRLNSAIIYDRDFSYNYFGFKTLERSYLLKINGKVAERPQHMLMRVSVGIHKEDIDAAIETYNLLSERWFTHASPTLFNAGTNRPQLSSCFLLSMKDDSIEGIYDTLKQCALISKSAGGIGVAVSCIRATGSYIAGTNGNSNGLVPMLRVYNNTARYVDQGGNKRPGAFAIYLEPWHLDIFEFLDLKKNTGKEEQRARDLFFALWIPDLFMKRVETNQDWSLMCPNECPGLDEVWGEEFEKLYASYEKQGRVRKVVKAQQLWYAIIESQTETGTPYMLYKDSCNRKSNQQNLGTIKCSNLCTEIVEYTSKDEVAVCNLASLALNMYVTSEHTYDFKKLAEVTKVVVRNLNKIIDINYYPVPEACLSNKRHRPIGIGVQGLADAFILMRYPFESAEAQLLNKQIFETIYYGALEASCDLAKEQGPYETYEGSPVSKGILQYDMWNVTPTDLWDWKVLKEKIAKYGIRNSLLIAPMPTASTAQILGNNESIEPYTSNIYTRRVLSGEFQIVNPHLLKDLTERGLWHEEMKNQIIACNGSIQSIPEIPDDLKQLYKTVWEISQKTVLKMAAERGAFIDQSQSLNIHIAEPNYGKLTSMHFYGWKQGLKTGMYYLRTRPAANPIQFTLNKEKLKDKEKVSKEEEEKERNTAAMVCSLENRDECLMCGS
  stoichiometry N: 1.2 α:β' and 1 α:β' and 1.06 α:β'

From article PMC2917093 (Biochemistry, 2009)
